T1: purified PSCA-Fc (human, UniProt O43653 12-83, limits assumed)
T1 construct: not shown: Fc part
T1 sequence: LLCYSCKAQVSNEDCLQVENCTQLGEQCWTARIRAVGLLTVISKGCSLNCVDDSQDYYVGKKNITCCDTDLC


molecular target: T1, purified PSCA-Fc; assay: competition ELISA, wells coated with purified PSCA-Fc; reference is the parental 2B3 minibody
Procedure: The ranking of the four minibodies was determined by competition ELISA and flow cytometry (FIG. 5).
Competition ELISA: PSCA relative binding affinity for the minibodies was determined by competition ELISA in which microtiter plate wells were coated with purified PSCA-Fc (Olafsen T, et al. J. Irrununotherapy 2007: 30:396).

| Binder | improvement of relative affinity compared to the parental |
| --- | --- |
| A11 anti-PSCA minibody (other, also called A11 minibody; variant A11) DIQLTQSPSTLSASMGDRVTITCSASSSVRFIHWYQQKPGKAPKRLIYDTSKLASGVPSRFSGSGSGTDFTLTISSLQPEDFATYYCQQWGSSPFTFGQGTKVEIKGSTSGGGSGGGSGGGGSSEVQLVEYGGGLVQPGGSLRLSCAASGFNIKDYYIHWVRQAPGKGLEWVAWIDPENGDTEFVPKFQGRATMSADTSKNTAYLQMNSLRAEDTAVYYCKTGGFWGQGTLVTVSSEPKSCDKTHTCPPCGGGSSGGGSGGQPREPQVYTLPPSRDELTKNQVSLTCLVKGFYPSDIAVEWESNGQPENNYKTTPPVLDSDGSFFLYSKLTVDKSRWQQGNVFSCSVMHEALHNHYTQKSLSLSPGK | 3 fold |
| C5 anti-PSCA minibody (other, also called C5 minibody; variant C5) DIQLIQSPSSLSASVGDRVTITCSASSSVRFIHWYQQKPGKAPKRLIYDTSKLASGVPSRFSGSGSGTDFTLTISSLQPEDFATYYCQQWSSSPFTFGQGTKVEIKGSTSGGGSGGGSGGGGSSEVQLVESGGGLVQPGGSLRLSCAASGFNIKDYYIHWVRQAPGKGLEWVAWIDPENGDTEFVPKFQGRATISADTSKNTVYLQMNSLRAKDTAVYYCKTGGFWGQGTLVTVSSEPKSCDKTHTCPPCGGGSSGGGSGGQPREPQVYTLPPSRDELTKNQVSLTCLVKGFYPSDIAVEWESNGQPENNYKTTPPVLDSDGSFFLYSKLTVDKSRWQQGNVFSCSVMHEALHNHYTQKSLSLSPGK | 1.9 fold |
| A2 anti-PSCA minibody (other, also called A2 minibody; variant A2) DIQLTQSPSSLSASVGDRVTITCSASSSVRFIHWYQQKPGKAPKRLIYDTSKLASGVPSRFSGSGSGTDFTLTISSLQPEDFATYYCQQWGSSPFTFGQGTKVEIKGSTSGGGSGGGSGGGGSEVQLVESGGGLVQPGGSLRLSCAASGFNIKDYYIHWVRQAPGKGLEWVAWIDPEYGDSEFVPKFQGRATMSADTSKNTAYLQMNSLRAEDTAVYYCKTGGFWGRGTLVTVSSEPKSCDKTHTCPPCGGGSSGGGSGGQPREPQVYTLPPSRDELTKNQVSLTCLVKGFYPSDIAVEWESNGQPENNYKTTPPVLDSDGSFFLYSKLTVDKSRWQQGNVFSCSVMHEALHNHYTQKSLSLSPGK | 4.4 fold |

— US20150239983A1 (University of California, published 2015)
